# Assay results taken from PMC9227038, “Characterization of Four Medically Important Toxins from Centruroides huichol Scorpion Venom and Its Neutralization by a Single Recombinant Antibody Fragment” (Toxins, 2022).
# Tests used:
# Test in all cases: SPR
# Conditions in all cases: both partners purified
# Chui3 toxin [1] = biological target: T1, Chui3 toxin (Centruroides huichol, UniProt C0HM16)
# T1 construct: also called Chui3/Cn3; FII.9-3
# Chui2 toxin [2] = biological target: T2, Chui2 toxin (Centruroides huichol, UniProt C0HM15)
# T2 construct: also called FII.9-2
# T2 sequence (C0HM15 whole entry): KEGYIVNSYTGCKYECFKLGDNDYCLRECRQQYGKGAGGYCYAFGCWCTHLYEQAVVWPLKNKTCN
# Chui4 toxin [3] = biological target: T3, Chui4 toxin (Centruroides huichol, UniProt C0HM17)
# T3 construct: also called FII.10-1
# T3 sequence (C0HM17 whole entry): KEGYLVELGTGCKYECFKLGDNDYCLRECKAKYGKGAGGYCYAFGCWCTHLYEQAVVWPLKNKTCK
# Chui5 toxin [4] = biological target: T4, Chui5 toxin (Centruroides huichol, UniProt C0HM18)
# T4 construct: also called FII.12-1
# T4 sequence (C0HM18 whole entry): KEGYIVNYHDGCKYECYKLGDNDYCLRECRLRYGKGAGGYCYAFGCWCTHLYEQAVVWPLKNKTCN
# Chui5 toxin [5] = biological target: T4, Chui5 toxin; remark: listed apart in the source
# Chui5 toxin [6] = biological target: T4, Chui5 toxin; remark: listed apart in the source
# Chui3 toxin [7] = biological target: T1, Chui3 toxin; remark: listed apart in the source
# Chui5 toxin [8] = biological target: T4, Chui5 toxin; remark: listed apart in the source
# Chui2 toxin [9] = biological target: T2, Chui2 toxin; remark: listed apart in the source
# Chui4 toxin [10] = biological target: T3, Chui4 toxin; remark: listed apart in the source
# T1 sequence (C0HM16 whole entry): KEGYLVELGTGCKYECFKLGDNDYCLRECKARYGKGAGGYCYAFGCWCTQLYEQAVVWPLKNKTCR
Binder,Kd (Chui3 toxin [1]) [nM],TR (residence time) (Chui3 toxin [1]) [min],koff (Chui3 toxin [1]) [s⁻¹],kon (Chui3 toxin [1]) [M⁻¹ s⁻¹],Kd (Chui2 toxin [2]) [nM],TR (residence time) (Chui2 toxin [2]) [min],koff (Chui2 toxin [2]) [s⁻¹],kon (Chui2 toxin [2]) [M⁻¹ s⁻¹],Kd (Chui4 toxin [3]) [nM],TR (residence time) (Chui4 toxin [3]) [min],koff (Chui4 toxin [3]) [s⁻¹],kon (Chui4 toxin [3]) [M⁻¹ s⁻¹],dH (Chui5 toxin [5]) [kcal/mol],Kd (Chui5 toxin [6]) [nM],koff (Chui5 toxin [6]) [s⁻¹],kon (Chui5 toxin [6]) [M⁻¹ s⁻¹],further results
"scFv 10FG2 (scFv, V domains shown, source: E. coli TG1 (pSyn1), purified (Ni2+-NTA, Superdex 75 SEC)) VH: QVNLRESGGGLVQPGGSLRLSCAASGFSFGSYGMHWVRQAPGKGLEWVAVISYGGGSKYYADSVKGRFTISRDNSKNTLYLQMNSLRAEDTAVYYCAKDARDCLLCSDWTFDLWGRGTLVTVSS VL: NFMLTQPHSASGTPGQRVTISCSGSSSNIGSNTVNWYRHLPGSAPELLIGSHNQRPSGVPDRFSGSKSGTSASLAISGLQSEDEADYYCAAWDDSTLGYVFGTGTKLTVL",1.8,53.1,0.00031,180000,1.1,60.4,0.00028,280000,0.3,242,7e-05,210000,–,–,–,–,–
"scFv HV (scFv, V domains shown, also called HV variant) VH: QVNLRESGGGLVQPGGSLRLSCAASGFSYGSYGMHWVRQAPGKGLEWVAVISYGGGSKYYADSVQGRFTISRDNSKNTLYLQMNSLRAEDTAVYYCAKDARDCLGCSDWTFDLWGRGTLVTVSS VL: NFMLTQPHSASGTPEQRVTISCSGSSSNIGSNTVNWYRHLPGSAPELLIGSHNQRPSGVPDRFSGSKSGTSASLAISGLQSEDEADYYCAAWDDSTLGYVFGTGTKLTVL",3.8,48.8,0.00034,90000,3.1,34.2,0.00049,160000,0.9,105,0.00016,180000,-1.6,–,–,–,Kd (Chui5 toxin [4]): 6.9 nM; TR (residence time) (Chui5 toxin [4]): 15.5 min; koff (Chui5 toxin [4]): 0.00108 s⁻¹; kon (Chui5 toxin [4]): 160000 M⁻¹ s⁻¹
"scFv 9a (scFv, V domains shown, also called variant 9a; clone 9a) VH: QVNLRESGGGLVQPGGSLRLSCAASGFSFGSYGMHWVRQAPGKGLEWVAVISYGGGSKYYADSVKGRFTISRDNSKNTLYLQMNSLRAEDTAVYYCAKDARDCLQCSDWTFDLWGRGTLVTVSS VL: NFMLTQPHSASGTPGQRVTISCSGSSSNIGSNTVNWYRHLPGSAPELLIGSHNQRPSGVPDRFSGSKSGTSASLAISGLQSEDEADYYCAAWDDSTLGYVFGTGTKLTVL",–,–,–,–,–,–,–,–,–,–,–,–,–,8.2,0.00119,150000,–
"scFv B15a (scFv, V domains shown, also called B15a variant; source: E. coli TG1 (pSyn1), purified (Ni2+-NTA, Superdex 75 SEC)) VH: QVNLRESGGGLVQPGGSLRLSCAASGFSFGSYGMHWVRQAPGKGLEWVAVISYGGGSKYYADSVQGRFTISRDNSKNTLYLQMNSLRAEDTAVYYCAKDARDCLQCSDWTFDLWGRGTLVTVSS VL: NFMLTQPHSASGTPGQRVTISCSGSSSNIGSNTVNWYRHLPGSAPELLIGSHNQRPSGVPDRFSGSKSGTSASLAISGLQSEDEADYYCAAWDDSTLGYVFGTGTKLTVL",–,–,–,–,–,–,–,–,–,–,–,–,-2.6,7.3,0.00097,130000,–
"scFv LR (scFv, V domains shown) VH: EVQLVESGGGLVQPGGSLRLSCTGSGFTFDNYAMHWLRQVPGEGLEWVSGISRSSGDIDYADSVKGRFTISRDDAKKTLSLQMNSLRAEDTAVYYCARGGFGSFDTWGQGTMVTVSS VL: EIVLTQSPATLSVSPGERATLSCRASQSVRSYLAWYQQKPGQAPRLLFSDASNRATGIPARFTGSGSGTDFTLTISSLEPEDFAIYYCQQYRYSPRTFGQGTKVEIK",–,–,–,–,–,–,–,–,–,–,–,–,–,–,–,–,binding result (Chui3 toxin [7]): binds; binding result (Chui5 toxin [8]): no binding (tested: 25 nM); binding result (Chui2 toxin [9]): binds; binding result (Chui4 toxin [10]): binds
